Reference: publication PMC3144408 (The Journal of Cell Biology, 2011)
One block for each molecule: values may come before it. Ends that are not written are not given here.

Assays:
MDA-MB-231 cells = assay: Colocalization of internalized β1-integrin with endogenous p120RasGAP; type: cell-based, human; settings: integrin trafficking 45 min in the presence of primaquine; Pearson's correlation coefficient, n = 27 cells
[1] = target: T1, GST-p120RasGAP GAP domain (p120 GAP WT, residues 714–1047) (human, UniProt P20936 714-1047); assay: pull-down
T1 sequence (looked up): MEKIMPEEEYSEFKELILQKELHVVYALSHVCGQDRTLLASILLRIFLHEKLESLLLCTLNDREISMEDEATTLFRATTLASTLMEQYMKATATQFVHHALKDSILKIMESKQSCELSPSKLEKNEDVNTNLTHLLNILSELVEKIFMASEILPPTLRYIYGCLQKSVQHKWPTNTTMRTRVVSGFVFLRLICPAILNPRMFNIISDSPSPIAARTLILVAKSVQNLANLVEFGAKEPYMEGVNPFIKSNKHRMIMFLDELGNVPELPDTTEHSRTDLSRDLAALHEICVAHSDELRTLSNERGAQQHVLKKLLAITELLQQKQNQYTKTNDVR

[2] = target: T2, p120RasGAP GAP domain R789A, recombinant, as used in fluorescence polarisation (human, UniProt P20936 714-1047, R789A); assay: fluorescence polarisation
T2 sequence (looked up): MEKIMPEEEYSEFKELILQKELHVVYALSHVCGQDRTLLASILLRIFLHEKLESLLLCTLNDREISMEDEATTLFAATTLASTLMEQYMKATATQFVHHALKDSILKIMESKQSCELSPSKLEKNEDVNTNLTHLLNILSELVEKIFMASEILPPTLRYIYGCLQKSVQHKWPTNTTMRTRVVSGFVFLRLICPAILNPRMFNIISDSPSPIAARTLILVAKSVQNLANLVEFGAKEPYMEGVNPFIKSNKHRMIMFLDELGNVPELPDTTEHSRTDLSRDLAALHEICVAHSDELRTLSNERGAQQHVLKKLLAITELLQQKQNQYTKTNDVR

[3] = target: T3, Rab21 (residues 15–225), recombinant, as used in the affinity and competition measurements (human, UniProt Q9UL25 15-225); assay: fluorescence polarisation
T3 sequence (looked up): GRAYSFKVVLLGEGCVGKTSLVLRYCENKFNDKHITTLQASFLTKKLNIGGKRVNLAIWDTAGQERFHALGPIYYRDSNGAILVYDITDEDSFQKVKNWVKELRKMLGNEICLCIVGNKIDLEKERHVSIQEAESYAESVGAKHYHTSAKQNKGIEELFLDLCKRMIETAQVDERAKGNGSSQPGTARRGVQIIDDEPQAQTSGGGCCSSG

Molecule: COc1cc(NC(C)CCCN)c2ncccc2c1 (stereo not shown) [primaquine]
overlap (colocalization) of internalized β1-integrins with p120RasGAP (MDA-MB-231 cells): significantly increased the overlap of integrins with p120RasGAP

binding result [1]: binds
Molecule: WKIGFFKRPLKKKMEKRPLKKKMEK (also: biotinylated, end not given here) [biotinylated α1-integrin cytoplasmic domain peptide]

binding result [2]: binds | Kd [3]: 28 µM
Molecule: WKLGFFKRKYEKM (also: EDANS fluorophore coupled, end not given here) [EDANS-conjugated α2-integrin cytoplasmic domain peptide (α2-cons, wild type)]
